Assay [1] deals with C3(x)1 from methylamine treated C3 (peak 2 of the MonoS cation exchange column) (human) (UniProt P01024).
A further assay has as its target C3b (human) (UniProt P01024).
The target in assay [2] is C3(x)2 from methylamine treated C3 (peak 3 of the MonoS cation exchange column) (human) (UniProt P01024).

For the substance Factor B (natural protein), the FB remaining after addition of FD (Wes immunoassay with a mAb to Bb), 1-120 min at 37°C in VB++: practically all at 1 min, 85% at 5 min, 60% at 15 min, 30–40% at 60–120 min in assay [1] amounted to 85%. The substance also registered an FB remaining after addition of FD (Wes immunoassay with a mAb to Bb), 1-120 min at 37°C in VB++: 90% at 1 min, ca. 60% at 5 min, 25% at 15 min, almost all consumed at 30 min in the assay with C3b (human) of 90%. Also, in assay [2], the FB remaining after addition of FD (Wes immunoassay with a mAb to Bb), 1-120 min at 37°C in VB++: all at 1–5 min, 90% at 15 min, 60% at 120 min is 90%.

The record behind these values is publication PMC7136553.
